Test results reported in PMC12851022, “Targeting the Spliceosomal Protein USP39 Through Allosteric Ligands and PROTAC‐Induced Degradation” (Angewandte Chemie (International Ed. in English), 2025).

Legend:
VHL_m (Δ91–121) = VHL_m (Δ91–121) (UniProt P40337)
VHL_WT-EGFP = VHL_WT-EGFP (UniProt P40337)
Chain of VHL_WT-EGFP (P40337 whole entry): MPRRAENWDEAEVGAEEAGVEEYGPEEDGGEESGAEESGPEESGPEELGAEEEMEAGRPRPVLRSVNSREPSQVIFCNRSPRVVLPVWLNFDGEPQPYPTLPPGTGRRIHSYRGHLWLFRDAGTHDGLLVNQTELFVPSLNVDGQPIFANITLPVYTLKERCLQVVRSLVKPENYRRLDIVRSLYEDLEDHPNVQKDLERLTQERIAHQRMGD

Chain of VHL_m (Δ91–121) (P40337 other isoform, or with tags, fused parts or gaps mutant): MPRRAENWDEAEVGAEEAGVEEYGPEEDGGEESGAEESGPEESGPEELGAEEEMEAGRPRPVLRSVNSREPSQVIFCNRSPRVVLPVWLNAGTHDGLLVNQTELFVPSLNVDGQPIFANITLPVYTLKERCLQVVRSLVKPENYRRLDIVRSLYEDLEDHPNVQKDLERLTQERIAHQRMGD

B1: USP39-OFP (natural protein)
chain: MSGRSKRESRGSTRGKRESESRGSSGRVKRERDREREPEAASSRGSPVRVKREFEPASAREAPASVVPFVRVKREREVDEDSEPEREVRAKNGRVDSEDRRSRHCPYLDTINRSVLDFDFEKLCSISLSHINAYACLVCGKYFQGRGLKSHAYIHSVQFSHHVFLNLHTLKFYCLPDNYEIIDSSLEDITYVLKPTFTKQQIANLDKQAKLSRAYDGTTYLPGIVGLNNIKANDYANAVLQALSNVPPLRNYFLEEDNYKNIKRPPGDIMFLLVQRFGELMRKLWNPRNFKAHVSPHEMLQAVVLCSKKTFQITKQGDGVDFLSWFLNALHSALGGTKKKKKTIVTDVFQGSMRIFTKKLPHPDLPAEEKEQLLHNDEYQETMVESTFMYLTLDLPTAPLYKDEKEQLIIPQVPLFNILAKFNGITEKEYKTYKENFLKRFQLTKLPPYLIFCIKRFTKNNFFVEKNPTIVNFPITNVDLREYLSEEVQAVHKNTTYDLIANIVHDGKPSEGSYRIHVLHHGTGKWYELQDLQVTDILPQMITLSEAYIQIWKRRDNDETNQQGA
fold reduction of USP39 PROTAC V1-induced degradation of USP39-OFP against cells with VHL WT-EGFP, fluorescence assay in HEK293T cells expressing VHL m (VHL_m (Δ91–121)): > 80 fold | DC50 of USP39 PROTAC V1-induced degradation of USP39-OFP, fluorescence assay in HEK293T cells co-expressing USP39 OFP and VHL WT-EGFP (VHL_WT-EGFP): 1 nM
